# Measured values published in patent US6087121A, “Chemiluminescent detection of heme proteins in biological samples” (Mayo Foundation for Medical Education and Research, priority 1999, dated 2000).
# Several values for one entry are separate records, joined by “and”; a condition that tells them apart may be missing. Identical values can stand only once.
# Key:
# Hb [1] = test: S/N ratios of different chemiluminescent substrates with Hb; type: biochemical, human
# Description: (§1) Centricon ultrafiltration filters were obtained from Amicon (Daven, Mass.). Polystyrene tubes (5.0 mL volume, 75×12 mm) used for the assay were manufactured by Sarstedt (Arlington Heights, Ill.). The chemiluminescent substrate, 7-dimethylamino-naphthalene-1,2-dicarbonic acid-hydrazide (7-DNH) was purchased from Boehringer Mannheim (Indianapolis, Ind.). PS-1 acridan substrate (solution A and solution B) was obtained from Lumigen Inc. (Southfield, Mich.). […] Tween-20 and Sodium Chloride were purchased from Fisher Scientific (Fair Lawn, N.J.). General laboratory chemicals such as, boric acid, sodium acetate, Trizma base, HEPES, hydrogen peroxide (H2 O2) solution (30.0%), human hemoglobin, catalase, 6-amino-2,3-dihydro-1,4-phthallazinedione (4-aminophthalhydrazide), N-(4-Aminobutyl)-N-ethyl-isoluminol, Triton X-100, (3-[3-cholamidopropyl)dimethylammonio]-1-propanesulfonate) (CHAPS), hydrogen disulfite, methimazole, ofloxacin, ascorbic acid, ammonium chloride, EDTA, Hb, bilirubin, and lactoperoxidase (LPO) were purchased from Sigma Chemical Company (St. Louis, Mo.). Human heart myoglobin and myeloperoxidase were obtained from Calbiochem (La Jolla, Calif.) Thyroid peroxidase (TPO) was purchased from O.E.M. Concepts, Inc. (Toms River, N.J.). Eosinophil peroxidase was provided by Dr. Greipp (Mayo Clinic). Fresh EDTA anticoagulated blood was collected from donors showing no signs of sickness and washed with physiological saline to isolate RBC.
# (§2) Fresh urine specimens were obtained in routine commercial collection vessels. The specimens were, either, analyzed immediately or stored at 4° C. until analysis. The urine samples were prepared for analysis by adding CTAC to produce a 0.1% solution, unless otherwise noted, in order to lyse the erythrocytes, thereby releasing hemoglobin. The assays were performed in a 75×12 mm polystyrene tube. The assay solutions were prepared by adding to each tube 294 μL of high ionic strength buffer, 5.0 μL of the prepared urine samples or standards, and […] of substrate (0.4 mM solution of 7-DNH), unless otherwise noted. […] The standard curve was obtained by plotting chemiluminescence emission in Relative Light Units (RLU) versus Hb concentration (μg/mL) or number of RBCs (#RBC/high power field (hpf)). Cell counts were determined with the Yellow Iris® instrument and confirmed by a manual hemocytometer count.
# (§3) The substrate (7-DNH) and the ultrafiltered urine were prepared as described above. The kinetics of chemiluminescence was determined by monitoring the chemiluminescence signal over a 20 second time period following addition of the substrate (7-DNH) to ultrafiltered urine. Measurements were performed either in the presence or absence of Hb. Experiments performed in the absence of Hb provide background measurements in relative light units (RLU).
# Mb = test: S/N ratios of different chemiluminescent substrates with Mb; type: biochemical, human; conditions: signal integrated over first five seconds
# Description: as §1, §2
# as §3, with “Experiments performed in the absence of Hb provide background measurements in relative light units (RLU).” left out
# Hb [2] = test: Chemiluminescence emission kinetics of 7-DNH with Hb; type: biochemical, human; conditions: Hb in ultrafiltered urine, after H2O2
# Description: as §3
# leukocytes = test: Stability of leukocytes in urine with ofloxacin; type: cell-based; conditions: 100 μg/ml ofloxacin, 4° C.
# Description: (§4) Intra- and inter-assay imprecision was performed for MPO standards, WBC standards and 3 urine samples. Intra- and inter-assay imprecision tests were performed as described for the Hb assay in Example 7. The effect of time on the stability of enzyme activity in the leukocytes was examined. The effect of adding a quinoline antimicrobial agent, ofloxacin, was also studied with respect to its stabilization of the leukocytes.
# Stability of leukocytes in the urine over time was improved by storing the urine samples at 4° C. The addition of 100 μg/ml of ofloxacin kept the leukocytes intact up to 20 hours later when the urines were maintained at 4° C. (FIG. 14).
# MPO [3] = molecular target: T1, MPO (Homo sapiens, UniProt P05164); test: Effects of potential interfering substances in WBC (MPO, PS-1) assay; type: biochemical; conditions: level giving signal equal to 5 WBC/high power field; highest tested: hemoglobin 250, myoglobin 200 μg/mL
# T1 sequence (P05164 49-745): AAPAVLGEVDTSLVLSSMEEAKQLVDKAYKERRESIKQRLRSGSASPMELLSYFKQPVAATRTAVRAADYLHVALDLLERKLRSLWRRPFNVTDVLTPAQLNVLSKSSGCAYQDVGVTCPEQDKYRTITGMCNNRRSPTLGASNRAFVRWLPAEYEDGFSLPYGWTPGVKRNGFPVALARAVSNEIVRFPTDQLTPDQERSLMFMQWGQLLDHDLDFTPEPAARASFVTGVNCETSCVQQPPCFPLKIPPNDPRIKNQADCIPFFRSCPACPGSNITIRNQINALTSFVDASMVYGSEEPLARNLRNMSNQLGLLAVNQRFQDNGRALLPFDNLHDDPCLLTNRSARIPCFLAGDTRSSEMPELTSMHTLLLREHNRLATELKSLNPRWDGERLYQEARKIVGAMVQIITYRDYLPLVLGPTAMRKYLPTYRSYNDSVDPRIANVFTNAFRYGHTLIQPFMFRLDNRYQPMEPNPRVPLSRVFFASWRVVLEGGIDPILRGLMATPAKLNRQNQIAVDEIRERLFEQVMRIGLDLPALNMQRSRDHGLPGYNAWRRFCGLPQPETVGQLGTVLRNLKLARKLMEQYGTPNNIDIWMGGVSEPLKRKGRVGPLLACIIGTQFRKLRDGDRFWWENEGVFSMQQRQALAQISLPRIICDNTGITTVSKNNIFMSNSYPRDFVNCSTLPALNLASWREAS
# Description: (§5) Urine samples were diluted 1:4 into distilled water to minimize inhibitory effects observed with hyperosmolal urines. Two μL of diluted urine were added to 12×75 mm polystyrene test tube containing 50 μL of the PS-1 solution. The tubes were incubated at 37° C. for 5 minutes. MPO activity was determined by chemiluminescence emission using a Turner TD-20e luminometer maintained at 37° C. Leukocyte counting was performed manually by using a hemacytometer chamber (Kova Glasstic slide, Hycor, Irvine, Calif.) on each urine sample to determine the number of cells/mL.
# Several possible interfering substances were added to urine and tested for inhibitory effects. Several common medications were also tested for potential inhibitory effects. […] Hb at concentrations of >10 μg/mL and Mb at concentrations >2 μg/mL were detected by the PS-1 substrate as the chemiluminescence emission was above the normal urine background. Samples grossly populated with bacteria caused slight inhibition of the MPO activity. Urine samples may contain many epithelial cells, casts, crystals, and numerous artifacts but none of these appear to interfere with the chemiluminescence emission from MPO.
# Hb [4] = test: Performance characteristics of Hb assay (precision, linearity, recovery, stability); design: species or system human; conditions: with detergent and substrate
# Description: Ultrafiltered urine was prepared from a pool of fresh urine specimens by ultrafiltration through Centriprep-10 at 3,000×g in a Beckman J2-HC centrifuge (Beckman Instruments, Calif.). This treatment separates all biomolecules with molecular weight greater than 10,000 daltons so that the ultrafiltered urine is devoid of Hemoglobin (Hb) and Myoglobin (Mb). Stock standards were prepared with the ultrafiltrate containing known quantities of, either purified Hb or washed, packed RBCS. A cell count of the stock RBC standard was determined by the Yellow IRIS® Automated Imaging System (Independent Research Imaging Systems, Chatsworth, Calif.). Cells in urine are imaged under laminar flow conditions. Up to 80 images of cells are captured using a high speed charged-coupled device camera. Cell images are then identified and quantified. […] All chemiluminescence measurements were determined using a Berthold AutoLumat, LB 953 (EG&G Berthold, Aliquippa, Pa.).
# Fresh urine specimens were obtained in routine commercial collection vessels. The specimens were, either, analyzed immediately or stored at 4° C. until analysis. […] The emission of light was measured over five seconds following automatic injection of 300 μL of 5% hydrogen peroxide (pH 3.25). […] Cell counts were determined with the Yellow Iris® instrument and confirmed by a manual hemocytometer count. […]
# MPO [5] = molecular target: T1, MPO; test: Effects of potential interfering substances in WBC (MPO, PS-1) assay; type: biochemical; conditions: Hb <10 μg/mL
# RBC = test: Effectiveness of lysing agents in RBC assay; type: cell-based, human; conditions: saponin 0.2 mg/mL, 30 second time period; mellitin 0.85 mg/mL; CTAC 0.1%
# Description: as §2
# Hb [6] = test: Interference studies in Hb assay (7-DNH chemiluminescence); type: biochemical, human
# Description: Numerous potential interfering substances, which either enhance or quench the signal generated by cyclic hydrazides, were evaluated. The effects of these potentially interfering substances on light emission was investigated at varying concentrations of the interfering composition. Assays were performed using serial dilutions of the potential interfering compositions in ultrafiltered urine at a fixed concentration of Hb. Comparisons of chemiluminescence emission were made between a reference solution (Hb in ultrafiltered urine) without added interfering compositions and solutions with added interferant.
# Generally, the value of 3 RBC per high power field is the normal cutoff point.
# Bilirubin and uric acid were examined as a possible negative interfering compositions because of their chemical structure which may quench energy emitted.
# MPO [7] = molecular target: T1, MPO; test: Performance characteristics of WBC assay, MPO standard; conditions: listed as MPO
# Description: as §5, §4
# MPO [8] = test: Effect of temperature/time on chemiluminescence emission from MPO with PS-1; type: biochemical
# Description: as §5
# The kinetics of chemiluminescence emission from MPO at 37° C. was followed over time using several urine samples diluted 4-fold in water (FIG. 11). […] Assays in Examples 10-16 were performed at 37° C., and chemiluminescence emission determined at 5 minutes.
molecule,measurement,setting,value
"CN(C)c1ccc2ccc3c(=O)[nH][nH]c(=O)c3c2c1 [7-DNH, 7-dimethylamino-naphthalene-1,2-dicarbonic acid-hydrazide]",sensitivity compared to other substrates tested,Hb [1]; by signal to noise ratio,most sensitive
same,S/N for Hb,Hb [1]; signal integrated over first five seconds,589
same,S/N for Mb,Mb,316
same,time of peak emission,Hb [2],2 s
CC1COc2c(N3CCN(C)CC3)c(F)cc3c(=O)c(C(=O)O)cn1c23 (stereo not drawn) [ofloxacin],leukocytes kept intact in urine,leukocytes,up to 20 hours
Hemoglobin: human hemoglobin purchased from Sigma,Interference,MPO [3],> 10 µg/mL
same,stability of Hb in the samples during the reaction,Hb [4],up to 25 minutes
same,interference with PS-1 assay,MPO [5],did not interfere
Mellitin: lysing agent,effectiveness as lysing agent,RBC,nearly as effective as 0.1% CTAC
"Myeloperoxidase: myeloperoxidase obtained from Calbiochem (protein, UniProt P05164 165-745, looked up) Myeloperoxidase: VTCPEQDKYRTITGMCNNRRSPTLGASNRAFVRWLPAEYEDGFSLPYGWTPGVKRNGFPVALARAVSNEIVRFPTDQLTPDQERSLMFMQWGQLLDHDLDFTPEPAARASFVTGVNCETSCVQQPPCFPLKIPPNDPRIKNQADCIPFFRSCPACPGSNITIRNQINALTSFVDASMVYGSEEPLARNLRNMSNQLGLLAVNQRFQDNGRALLPFDNLHDDPCLLTNRSARIPCFLAGDTRSSEMPELTSMHTLLLREHNRLATELKSLNPRWDGERLYQEARKIVGAMVQIITYRDYLPLVLGPTAMRKYLPTYRSYNDSVDPRIANVFTNAFRYGHTLIQPFMFRLDNRYQPMEPNPRVPLSRVFFASWRVVLEGGIDPILRGLMATPAKLNRQNQIAVDEIRERLFEQVMRIGLDLPALNMQRSRDHGLPGYNAWRRFCGLPQPETVGQLGTVLRNLKLARKLMEQYGTPNNIDIWMGGVSEPLKRKGRVGPLLACIIGTQFRKLRDGDRFWWENEGVFSMQQRQALAQISLPRIICDNTGITTVSKNNIFMSNSYPRDFVNCSTLPALNLASWREAS",Level of Interference (in words),"Hb [6]; highest conc: ascorbic acid 10, bilirubin 10, Cu++/Mn++ 40, sodium azide 500 μg/mL, uric acid 1 mg/mL",only interfere at very high concentrations
same,Level of Interference,"Hb [6]; level producing a signal equivalent to 3 RBC per high power field, fixed Hb concentration",> 6.2 µg/mL
same,"CV%, MPO Standard","MPO [7]; Table 10, intra-assay precision, 0.01% Triton incorporated",2.05% and 3.56% and 4.33% and 4.63%
same,"CV%, MPO Standard","MPO [7]; Table 11, 0.01% Triton incorporated",6.36% and 8.39% and 8.26% and 5.50%
same,change in RLU (constant chemiluminescence emission),"MPO [8]; 37° C., between 3 and 20 minutes",less than 5%
same,time of maximum light emission,MPO [8]; room temperature,15 min
